Measured values published in article doi:10.1101/2022.09.15.508097 (bioRxiv, 2022).

T1: HAT-MBP-ZNF518B^770–987 (human, UniProt Q9C0D4 770-987)
T1 sequence: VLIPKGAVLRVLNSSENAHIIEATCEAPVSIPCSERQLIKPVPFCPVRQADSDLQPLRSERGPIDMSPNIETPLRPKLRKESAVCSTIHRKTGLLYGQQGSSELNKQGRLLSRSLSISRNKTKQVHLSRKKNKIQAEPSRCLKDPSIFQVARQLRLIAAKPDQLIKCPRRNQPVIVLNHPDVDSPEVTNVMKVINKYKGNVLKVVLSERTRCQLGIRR

T2: TetR-EYFP-ZNF518B^878–987 (human, UniProt Q9C0D4 878-987)
T2 sequence: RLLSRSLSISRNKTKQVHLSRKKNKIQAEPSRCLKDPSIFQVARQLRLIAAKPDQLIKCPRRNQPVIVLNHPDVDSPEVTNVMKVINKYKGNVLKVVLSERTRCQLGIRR

T3: TetR-EYFP-ZNF518B^878–1074 (human, UniProt Q9C0D4 878-1074)
T3 sequence: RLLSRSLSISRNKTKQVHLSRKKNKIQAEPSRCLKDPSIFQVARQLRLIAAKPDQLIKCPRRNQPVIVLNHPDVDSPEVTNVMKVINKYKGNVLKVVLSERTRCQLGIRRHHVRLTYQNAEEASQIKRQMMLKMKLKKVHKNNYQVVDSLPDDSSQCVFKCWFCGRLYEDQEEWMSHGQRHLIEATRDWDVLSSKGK

T4: TetR-EYFP-ZNF518B^344–1074 (human, UniProt Q9C0D4 344-1074)
T4 sequence: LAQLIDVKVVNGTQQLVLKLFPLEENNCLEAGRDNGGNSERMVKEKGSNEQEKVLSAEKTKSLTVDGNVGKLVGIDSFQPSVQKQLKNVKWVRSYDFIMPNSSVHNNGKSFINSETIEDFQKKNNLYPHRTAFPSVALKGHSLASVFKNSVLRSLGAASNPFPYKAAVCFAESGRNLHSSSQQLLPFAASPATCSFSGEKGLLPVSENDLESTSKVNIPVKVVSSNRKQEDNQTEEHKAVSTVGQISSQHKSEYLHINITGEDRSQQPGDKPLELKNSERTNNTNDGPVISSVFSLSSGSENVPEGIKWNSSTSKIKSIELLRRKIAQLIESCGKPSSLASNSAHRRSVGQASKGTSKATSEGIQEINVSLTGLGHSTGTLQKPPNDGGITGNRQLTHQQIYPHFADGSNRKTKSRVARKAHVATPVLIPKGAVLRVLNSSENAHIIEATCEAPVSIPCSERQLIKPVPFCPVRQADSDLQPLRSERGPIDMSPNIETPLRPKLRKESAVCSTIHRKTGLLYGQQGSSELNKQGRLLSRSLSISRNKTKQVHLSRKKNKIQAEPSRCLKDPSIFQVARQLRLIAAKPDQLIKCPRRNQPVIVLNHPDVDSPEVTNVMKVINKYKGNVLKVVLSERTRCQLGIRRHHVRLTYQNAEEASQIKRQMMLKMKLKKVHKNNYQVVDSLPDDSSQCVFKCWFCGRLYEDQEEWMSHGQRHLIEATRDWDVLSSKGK

T5: TetR-EYFP-ZNF518B^770–987 (human, UniProt Q9C0D4 770-987)
T5 sequence: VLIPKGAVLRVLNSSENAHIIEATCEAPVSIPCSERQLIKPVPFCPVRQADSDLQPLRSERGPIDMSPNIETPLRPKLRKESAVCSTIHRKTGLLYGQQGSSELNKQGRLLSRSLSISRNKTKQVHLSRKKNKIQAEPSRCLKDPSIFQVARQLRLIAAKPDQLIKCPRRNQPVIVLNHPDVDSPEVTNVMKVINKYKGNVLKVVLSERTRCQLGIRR

T6: TetR-EYFP-ZNF518B^344–987 (human, UniProt Q9C0D4 344-987)
T6 sequence: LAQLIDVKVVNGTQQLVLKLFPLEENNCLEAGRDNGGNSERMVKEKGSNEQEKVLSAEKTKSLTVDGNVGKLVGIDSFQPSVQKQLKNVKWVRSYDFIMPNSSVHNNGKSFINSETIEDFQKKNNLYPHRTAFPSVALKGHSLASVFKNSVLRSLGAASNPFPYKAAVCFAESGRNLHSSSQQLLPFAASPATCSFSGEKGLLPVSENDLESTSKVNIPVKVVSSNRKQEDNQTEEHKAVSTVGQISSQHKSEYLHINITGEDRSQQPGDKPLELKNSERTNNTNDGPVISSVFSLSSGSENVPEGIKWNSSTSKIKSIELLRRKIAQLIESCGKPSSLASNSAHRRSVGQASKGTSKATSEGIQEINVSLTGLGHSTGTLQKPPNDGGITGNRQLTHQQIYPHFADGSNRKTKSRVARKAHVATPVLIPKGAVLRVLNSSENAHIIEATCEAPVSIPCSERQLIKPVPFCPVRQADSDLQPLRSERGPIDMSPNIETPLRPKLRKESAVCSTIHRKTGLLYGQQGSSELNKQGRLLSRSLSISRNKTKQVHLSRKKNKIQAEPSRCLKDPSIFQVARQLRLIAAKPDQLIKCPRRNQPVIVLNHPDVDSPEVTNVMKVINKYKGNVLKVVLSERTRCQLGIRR

T7: TetR-EYFP-ZNF518B^555–1074 (human, UniProt Q9C0D4 555-1074)
T7 sequence: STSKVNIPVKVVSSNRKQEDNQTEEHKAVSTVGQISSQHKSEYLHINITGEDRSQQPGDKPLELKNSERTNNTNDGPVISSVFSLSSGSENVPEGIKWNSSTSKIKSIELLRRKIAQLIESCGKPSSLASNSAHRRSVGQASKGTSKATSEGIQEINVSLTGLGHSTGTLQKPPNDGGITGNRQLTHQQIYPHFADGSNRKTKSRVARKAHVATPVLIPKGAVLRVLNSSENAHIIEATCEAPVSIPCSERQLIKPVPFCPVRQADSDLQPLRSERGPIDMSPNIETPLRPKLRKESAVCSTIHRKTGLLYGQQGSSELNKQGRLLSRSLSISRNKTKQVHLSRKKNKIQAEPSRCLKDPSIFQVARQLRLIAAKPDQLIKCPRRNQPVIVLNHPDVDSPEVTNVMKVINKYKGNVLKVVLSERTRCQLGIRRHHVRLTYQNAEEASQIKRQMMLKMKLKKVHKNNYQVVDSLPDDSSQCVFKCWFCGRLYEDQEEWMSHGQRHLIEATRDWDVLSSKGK

T8: TetR-EYFP-ZNF518B^WT (human, UniProt Q9C0D4 1-1074)
T8 sequence: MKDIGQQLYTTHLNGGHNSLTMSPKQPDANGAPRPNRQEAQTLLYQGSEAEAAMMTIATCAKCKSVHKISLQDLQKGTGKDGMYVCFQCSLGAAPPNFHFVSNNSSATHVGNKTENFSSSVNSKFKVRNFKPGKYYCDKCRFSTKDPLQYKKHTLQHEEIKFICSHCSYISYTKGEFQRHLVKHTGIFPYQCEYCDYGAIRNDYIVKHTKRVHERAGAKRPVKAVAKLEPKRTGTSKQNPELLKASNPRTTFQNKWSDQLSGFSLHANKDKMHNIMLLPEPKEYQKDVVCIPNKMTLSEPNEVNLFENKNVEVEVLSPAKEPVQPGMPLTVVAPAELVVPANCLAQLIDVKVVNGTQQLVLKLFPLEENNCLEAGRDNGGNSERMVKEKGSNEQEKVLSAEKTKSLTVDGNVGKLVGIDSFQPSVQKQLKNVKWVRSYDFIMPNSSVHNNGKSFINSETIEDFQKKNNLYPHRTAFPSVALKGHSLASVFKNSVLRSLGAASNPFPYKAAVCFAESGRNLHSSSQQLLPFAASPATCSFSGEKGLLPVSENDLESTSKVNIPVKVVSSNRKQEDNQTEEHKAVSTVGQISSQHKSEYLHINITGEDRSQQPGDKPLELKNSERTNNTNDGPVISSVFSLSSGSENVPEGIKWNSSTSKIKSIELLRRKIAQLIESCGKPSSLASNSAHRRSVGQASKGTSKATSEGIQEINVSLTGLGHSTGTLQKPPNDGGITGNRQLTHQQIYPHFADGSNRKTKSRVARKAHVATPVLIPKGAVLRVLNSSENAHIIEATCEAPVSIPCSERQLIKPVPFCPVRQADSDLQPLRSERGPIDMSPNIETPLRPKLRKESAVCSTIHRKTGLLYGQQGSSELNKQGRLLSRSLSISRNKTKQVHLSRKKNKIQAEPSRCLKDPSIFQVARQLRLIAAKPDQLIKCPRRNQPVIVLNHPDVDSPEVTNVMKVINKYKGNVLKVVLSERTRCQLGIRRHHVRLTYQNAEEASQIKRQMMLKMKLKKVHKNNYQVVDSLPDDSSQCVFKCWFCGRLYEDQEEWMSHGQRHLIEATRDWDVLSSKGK


Experiments:
HAT-MBP-ZNF518B^770–987 = target: T1, HAT-MBP-ZNF518B^770–987; experiment: pull-down
[1] = target: T2, TetR-EYFP-ZNF518B^878–987; experiment: fluorescence microscopy-based interaction-trap
[2] = target: T3, TetR-EYFP-ZNF518B^878–1074; experiment: fluorescence microscopy-based interaction-trap
[3] = target: T4, TetR-EYFP-ZNF518B^344–1074; experiment: fluorescence microscopy-based interaction-trap
[4] = target: T5, TetR-EYFP-ZNF518B^770–987; experiment: fluorescence microscopy-based interaction-trap
[5] = target: T6, TetR-EYFP-ZNF518B^344–987; experiment: fluorescence microscopy-based interaction-trap
[6] = target: T7, TetR-EYFP-ZNF518B^555–1074; experiment: fluorescence microscopy-based interaction-trap
TetR-EYFP-ZNF518B^WT = target: T8, TetR-EYFP-ZNF518B^WT; experiment: fluorescence microscopy-based interaction-trap

| Binder | binding result (HAT-MBP-ZNF518B^770–987) | % of cells with recruitment to alphoid^tetO [1] | % of cells with recruitment to alphoid^tetO [2] | % of cells with recruitment to alphoid^tetO [3] | % of cells with recruitment to alphoid^tetO [4] | % of cells with recruitment to alphoid^tetO [5] | % of cells with recruitment to alphoid^tetO [6] | % of cells with recruitment to alphoid^tetO (TetR-EYFP-ZNF518B^WT) |
| --- | --- | --- | --- | --- | --- | --- | --- | --- |
| His6-GST-HP1β (natural protein) not shown | binds |  |  |  |  |  |  |  |
| His6-GST-HP1γ (natural protein) not shown | binds |  |  |  |  |  |  |  |
| Halo-HP1γ (natural protein, Halo Tag TMR ligand on the Halo tag) not shown |  | > 75% | > 75% | > 75% | > 75% | > 75% | > 75% |  |
| Halo-HP1β (natural protein, Halo Tag TMR ligand on the Halo tag) not shown |  | > 75% | > 75% | > 75% | > 75% | > 75% | > 75% | 58% |
